The target in assay [1] is soluble EGFR (sEGFR) (UniProt P00533). Briefly: SPR; Biacore 2000; sEGFR immobilised on a CM5 chip at the lower amount (1073 to 1122 RU); PBS with 0.005% Tween20; scFv monomer or dimer injected for 120 s at 10 to 250 nM; global fit, 1:1 Langmuir model. In general terms: In SPR one partner is held on a chip, and binding of the other changes the refractive index at the surface.

Assay [2] shares this target. Briefly: SPR; Biacore 2000; sEGFR immobilised on a CM5 chip at the higher amount (2605 to 2833 RU); PBS with 0.005% Tween20; scFv monomer or dimer injected for 120 s at 10 to 250 nM; global fit, 1:1 Langmuir model.
For assay [3] the target is unchanged. Kind of assay: SPR; Biacore 2000; sEGFR immobilised on a CM5 chip (amount not given for Tables 2 and 5); running buffer PBS with 0.005% Tween20; scFv monomer or dimer injected for 120 s at 10 to 250 nM; global fit, 1:1 Langmuir model.
Assay [4] concerns the target T1, soluble EGFR (sEGFR) (Homo sapiens (assumed; EGFR on human …, UniProt P00533).
T1 construct: soluble epidermal growth factor receptor (sEGFR); also called epidermal growth factor receptor; immobilized EGFR; source: prepared as described previously [28]
The description is as above. As to conditions: both partners purified.

Assay [5] has as its target T1, soluble EGFR (sEGFR). Briefly: SPR; Biacore 2000; sEGFR immobilised on a CM5 chip at the lower amount (1073 to 1122 RU); PBS with 0.005% Tween20; scFv monomer or dimer injected for 120 s at 10 to 250 nM; global fit, 1:1 Langmuir model. The following applies: both partners purified.
Assay [6] addresses T1, soluble EGFR (sEGFR). Briefly: SPR; Biacore 2000; sEGFR immobilised on a CM5 chip at the higher amount (2605 to 2833 RU); PBS with 0.005% Tween20; scFv monomer or dimer injected for 120 s at 10 to 250 nM; global fit, 1:1 Langmuir model. The following applies: both partners purified.
The target of a further assay is T2, EGFR on A431 cells (Homo sapiens (A431 cells), UniProt P00533).
T2 construct: epidermal growth factor receptor on A431, a human epidermoid carcinoma line; also called target-expressing cells; A431 (EGFR-positive tumor cell line); source: endogenous, on A431 cells
Briefly: flow cytometry on cells; competitive binding: 10^6 A431 cells mixed with non-labeled scFv or dimer (50 pmol), washed, then various amounts of FITC-labeled wild-type h528 scFv added; on ice. The following applies: one partner purified.

Positions count from the first letter of the chain named.

Results on eleven molecules are retold here after article PMC7037651, “Chemically Crosslinked Bispecific Antibodies for Cancer Therapy: Breaking from the Structural Restrictions of the Genetic Fusion Approach” (International Journal of Molecular Sciences, 2020).

In general, Kd refers to the free concentration of one partner at which half of the binding sites on the other are occupied at equilibrium, for simple one-to-one binding. Regarding “side–tail bivalent h528 scFv dimer with C6 linker”, the Kd with soluble EGFR (sEGFR) [1] was 159 nM. This counts as sub-micromolar.
Same read-out and setting: the same measure for “side–side bivalent h528 scFv dimer with C1 linker”: 78 nM.
A word on the koff: it is the rate constant with which the complex falls apart. A low value points to a long-lived complex. By kon is commonly meant a measure of how fast the partners come together. A higher kon goes with fast association. In the case of “tail–tail bivalent h528 scFv dimer with C6 linker”, in the assay with soluble EGFR (sEGFR) [1], the Kd amounted to 18 nM, the dissociation rate constant (koff) stood at 0.0012 s⁻¹ and the association rate constant (kon) came out at 62000 M⁻¹ s⁻¹. Also, in the assay with soluble EGFR (sEGFR) [2], the dissociation constant (Kd) worked out at 23 nM, the koff was 0.0015 s⁻¹ and the association rate constant (kon) was determined as 63000 M⁻¹ s⁻¹.
Consider “side–side bivalent h528 scFv dimer with C6 linker”, for which the Kd with soluble EGFR (sEGFR) [2] was 34 nM.
In the assay with soluble EGFR (sEGFR) [1], “side–tail bivalent h528 scFv dimer with C1 linker” returned a Kd of 149 nM, an off-rate constant (koff) of 0.005 s⁻¹ and a kon of 34000 M⁻¹ s⁻¹. For the same molecule, in the assay with soluble EGFR (sEGFR) [2], the dissociation constant Kd is 109 nM, the koff is 0.0047 s⁻¹ and the on-rate (kon) is 43000 M⁻¹ s⁻¹.

B1: wild-type humanized 528 (h528) scFv (scFv, V domains shown)
VH: QVQLVQSGAEVKKPGASVKVSCKASGYTFTSYWMHWVRQAPGQGLEWMGNIYPGSGGTNYAEKFKNRVTMTRDTSISTAYMELSRLRSDDTAVYYCARSGGPYFFDYWGQGTLVTVSS
VL: DIVMTQSPLSLPVTPGEPASISCRSSQNIVHNNGITYLEWYLQKPGQSPQLLIYKVSDRFSGVPDRFSGSGSGTDFTLKISRVEAEDVGVYYCFQGSHIPPTFGQGTKVEIK
B1: in the assay with soluble EGFR (sEGFR) [3], the Kd is 26 nM, the koff worked out at 0.0052 s⁻¹ and the kon worked out at 196000 M⁻¹ s⁻¹.

B2: 0KCDR h528 scFv (scFv, V domains shown)
VH: B1 VH with K63E, K65Q
VL: B1 VL with K55Q
notes: linker (GGGGS)3; it looks like Kabat numbering; also called 0KCDR scFv
In the assay with soluble EGFR (sEGFR) [4], B2 had a Kd of 38 nM, an off-rate (koff) of 0.0054 s⁻¹ and a kon of 141000 M⁻¹ s⁻¹.

B3: LK103-0K h528 scFv (scFv, V domains shown)
VH: B1 VH with K12A, K13E, K19Q, K23A, K63E, K65Q
VL: B1 VL with K44R, K55Q, K79T, K112E
notes: linker (GGGGS)3; lysine kept at L103; also called LK103-0K scFv
Turning to B3, the dissociation constant (Kd) with soluble EGFR (sEGFR) [5] was 221 nM; in the assay with soluble EGFR (sEGFR) [6], 207 nM; in the assay with soluble EGFR (sEGFR) [4] it was 205 nM. For the same molecule, the values for the koff with soluble EGFR (sEGFR) [5], in the assay with soluble EGFR (sEGFR) [6] and with soluble EGFR (sEGFR) [4] were 0.0086 s⁻¹, 0.0089 s⁻¹ and 0.0086 s⁻¹, respectively. Moreover, the kon came to 39000 M⁻¹ s⁻¹ in the assay with soluble EGFR (sEGFR) [5], 43000 M⁻¹ s⁻¹ with soluble EGFR (sEGFR) [6] and 42000 M⁻¹ s⁻¹ in the assay with soluble EGFR (sEGFR) [4].

B4: 0K h528 scFv (scFv, V domains shown)
VH: B1 VH with K12A, K13E, K19Q, K23A, K63E, K65Q
VL: B1 VL with K44R, K55Q, K79T, K108E, K112E
notes: linker (GGGGS)3; it looks like Kabat numbering; also called h528 scFv without lysine in the CDR and FR
In the assay with soluble EGFR (sEGFR) [4], B4 had an equilibrium dissociation constant (Kd) of 137 nM, an off-rate (koff) of 0.0082 s⁻¹ and an on-rate constant (kon) of 60000 M⁻¹ s⁻¹.

B5: HK19-0K h528 scFv (scFv, V domains shown)
VH: B1 VH with K12A, K13E, K23A, K63E, K65Q
VL: B1 VL with K44R, K55Q, K79T, K108E, K112E
notes: lysine kept at H19; linker (GGGGS)3; 0K scFv with the 19th residue of VH returned to lysine; also called HK19-0K scFv; KH19-0K scFv
B5: in the assay with soluble EGFR (sEGFR) [5], the dissociation constant (Kd) was found to be 144 nM, the dissociation rate constant (koff) is 0.0075 s⁻¹ and the kon stood at 52000 M⁻¹ s⁻¹. In the assay with soluble EGFR (sEGFR) [6], this molecule returned a Kd of 108 nM, a dissociation rate constant (koff) of 0.0075 s⁻¹ and a kon of 69000 M⁻¹ s⁻¹. In the assay with soluble EGFR (sEGFR) [4], this molecule gave a Kd of 135 nM, a koff of 0.0079 s⁻¹ and an on-rate (kon) of 60000 M⁻¹ s⁻¹.

B6: FITC-labeled wild-type h528 scFv (scFv, V domains shown)
VH: B1 VH
VL: B1 VL
notes: linker (GGGGS)3; m4 with a fluorescein label; also called fluorescently labeled wild-type scFv; labeled wild-type scFv
For the molecule B6, the binding result with EGFR on A431 cells is recorded as “binds”.
